Source: paper PMC6482001 (eLife, 2019)
Read-outs that look alike come from different tables or passages of the source. Values belong to the molecule of their own block, whether it stands above or below them.

Experiments:
GltTk [1] = biological target: T1, GltTk (Thermococcus kodakarensis, UniProt Q5JID0); experiment: isothermal titration calorimetry; assay type: binding
T1 construct: gene TK0986; C-terminally His8-tagged (pBAD24-GltTk-His8), expressed in E. coli MC1061, purified in decylmaltoside-type detergent (DM) or reconstituted in proteoliposomes; homotrimer
Description: (§1) isothermal titration calorimetry on GltTk

GltTk [2] = biological target: T1, GltTk; experiment: isothermal titration calorimetry; conditions: 300 mM NaCl, 100 mM KCl, pH 8.0, 25 °C, 0.15% DM; Na+-coupled binding; cited from earlier work
Description: as §1

[3] = biological target: glutamate transporter homolog GltTk from Thermococcus kodakarensis (Thermococcus kodakarensis) (UniProt Q5JID0); experiment: crystal structure; GltTk with D-aspartate, 2.8 Å; hanging drop vapour diffusion at 5°C, 300 mM NaCl, 300 µM D-aspartate, protein 7 mg/ml in 10 mM Hepes KOH pH 8.0, 100 mM KCl, 0.15% DM; outward-oriented occluded state
purified protein [4] = substrate: N[C@@H](CC(=O)O)C(=O)O; experiment: purified protein; conditions: 100 mM NaCl outside, pH 7.5, 3 µM valinomycin, labelled compound
purified protein [5] = substrate: N[C@H](CC(=O)O)C(=O)O; experiment: purified protein; conditions: 100 mM NaCl outside, pH 7.5, 3 µM valinomycin, labelled compound

Molecule: N[C@@H](CC(=O)O)C(=O)O [L-aspartate]
- Kd (GltTk [2]): 120 ± 40 nM

B1: GltTk (Thermococcus kodakarensis KOD1) (protein)
chain: MGKSLLRRYLDYPVLWKILWGLVLGAVFGLIAGHFGYAGAVKTYIKPFGDLFVRLLKMLVMPIVLASLVVGAASISPARLGRVGVKIVVYYLATSAMAVFFGLIVGRLFNVGANVNLGSGTGKAIEAQPPSLVQTLLNIVPTNPFASLAKGEVLPVIFFAIILGIAITYLMNRNEERVRKSAETLLRVFDGLAEAMYLIVGGVMQYAPIGVFALIAYVMAEQGVRVVGPLAKVVGAVYTGLFLQIVITYFILLKVFGIDPIKFIRKAKDAMITAFVTRSSSGTLPVTMRVAEEEMGVDKGIFSFTLPLGATINMDGTALYQGVTVLFVANAIGHPLTLGQQLVVVLTAVLASIGTAGVPGAGAIMLAMVLQSVGLDLTPGSPVALAYAMILGIDAILDMGRTMVNVTGDLAGTVIVAKTEKELDESKWIS
- Km (purified protein [4]): 0.75 ± 0.17 µM
- Km (purified protein [5]): 1.1 ± 0.11 µM

Second part, the molecule after the results:

- Kd (GltTk [1]): 470 ± 170 nM
Molecule: N[C@H](CC(=O)O)C(=O)O [D-aspartate]

- stoichiometry N [3]: 3
Molecule: glutamate transporter homolog GltTk from Thermococcus kodakarensis (from UniProt Q5JID0 1-430) (natural protein)
